Source: US20100292181

How the values were obtained:
[1] = biological target: GST-tagged recombinant human cofilin
[2] = biological target: T1, Synthetic peptide S3 conjugated to a penetratin peptide
T1 chain: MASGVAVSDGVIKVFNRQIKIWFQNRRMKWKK

GST-tagged recombinant human cofilin, sequence (chain, as listed by the source): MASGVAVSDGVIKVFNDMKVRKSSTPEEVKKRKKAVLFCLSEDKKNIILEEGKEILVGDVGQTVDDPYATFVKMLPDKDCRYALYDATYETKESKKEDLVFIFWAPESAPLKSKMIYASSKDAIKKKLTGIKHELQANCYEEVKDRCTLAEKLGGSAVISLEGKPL

B1: purified LIMK1 (protein)
chain: GSSARQKPVLRSCSIDRSPGAGSLGSPASQRKDLGRSESLRVVCRPHRIFRPSDLIHGEVLGKGCFGQAIKVTHRETGEVMVMKELIRFDEETQRTFLKEVKVMRCLEHPNVLKFIGVLYKDKRLNFITEYIKGGTLRGIIKSMDSQYPWSQRVSFAKDIASGMAYLHSMNIIHRDLNSHNCLVRENKNVVVADFGLARLMVDEKTQPEGLRSLKKPDRKKRYTVVGNPYWMAPEMINGRSYDEKVDVFSFGIVLCEIIGRVNADPDYLPRTMDFGLNVRGFLDRYCPPNCPPSFFPITVRCCDLDPEKRPSFVKLEHWLETLRMHLAGHLPLGPQLEQLDRGFWETYRRGESG
cofilin phosphorylation in the in vitro LIMK1 kinase assay (western blot for phospho-cofilin ser3) [1]: the phosphorylation of cofilin by LIMK1
cofilin phosphorylation in the in vitro LIMK1 kinase assay (western blot for phospho-cofilin ser3) [2]: S3 inhibited cofilin phosphorylation by LIMK1
